Reference: PMC11613296

Biological target: Tau (2N4R Tau; Tau(291–391)) 2-441 (UniProt P10636)
Test: ELISA, immobilised Tau(291–391), soluble 2N4R Tau
Settings: reference: unmodified (WT) Tau(291–391)

| Substance | binding against the reference (sites S352) | binding against the reference (sites S356) |
| --- | --- | --- |
| Tau (2N4R Tau; Tau(291–391)) 291-391 (from UniProt P10636-8) pS352 Tau(291–391) | weaker |  |
| Tau (2N4R Tau; Tau(291–391)) 291-391 (from UniProt P10636-8) pS356 Tau(291–391) |  | weaker |
